Experimental findings from PMC12016552, “Growth-coupled continuous directed evolution by MutaT7 enables efficient and automated enzyme engineering” (Applied and Environmental Microbiology, 2025) are described below.

Substrate in the data set: O=S1(=O)OC(c2ccc(O)c(Cl)c2)(c2ccc(O[C@@H]3O[C@H](CO)[C@H](O)[C@H](O)[C@H]3O)c(Cl)c2)c2ccccc21
The data set is described as follows: purified protein. Type of data set: biochemical, Pyrococcus furiosus. The settings on record: 25 °C, PBS pH 7.4 (CPRG assay as described for screening; screening buffer contained 2.7% glucose).

B1: CelB (Pyrococcus furiosus) (protein)
chain: MKFPKNFMFGYSWSGFQFEMGLPGSEVESDWWVWVHDKENIASGLVSGDLPENGPAYWHLYKQDHDIAEKLGMDCIRGGIEWARIFPKPTFDVKVDVEKDEEGNIISVDVPESTIKELEKIANMEALEHYRKIYSDWKERGKTFILNLYHWPLPLWIHDPIAVRKLGPDRAPAGWLDEKTVVEFVKFAAFVAYHLDDLVDMWSTMNEPNVVYNQGYINLRSGFPPGYLSFEAAEKAKFNLIQAHIGAYDAIKEYSEKSVGVIYAFAWHDPLAEEYKDEVEEIRKKDYEFVTILHSKGKLDWIGVNYYSRLVYGAKDGHLVPLPGYGFMSERGGFAKSGRPASDFGWEMYPEGLENLLKYLNNAYELPMIITENGMADAADRYRPHYLVSHLKAVYNAMKEGADVRGYLHWSLTDNYEWAQGFRMRFGLVYVDFETKKRYLRPSALVFREIATQKEIPEELAHLADLKFVTRK
notes: homotetramer
On to B1, for which the Km stood at 29.1 ± 1.9 µM and the kcat worked out at 0.89 ± 0.04 s⁻¹.

B2: CelB (Pyrococcus furiosus; E365K/G72E) (protein)
chain: MKFPKNFMFGYSWSGFQFEMGLPGSEVESDWWVWVHDKENIASGLVSGDLPENGPAYWHLYKQDHDIAEKLEMDCIRGGIEWARIFPKPTFDVKVDVEKDEEGNIISVDVPESTIKELEKIANMEALEHYRKIYSDWKERGKTFILNLYHWPLPLWIHDPIAVRKLGPDRAPAGWLDEKTVVEFVKFAAFVAYHLDDLVDMWSTMNEPNVVYNQGYINLRSGFPPGYLSFEAAEKAKFNLIQAHIGAYDAIKEYSEKSVGVIYAFAWHDPLAEEYKDEVEEIRKKDYEFVTILHSKGKLDWIGVNYYSRLVYGAKDGHLVPLPGYGFMSERGGFAKSGRPASDFGWEMYPEGLENLLKYLNNAYKLPMIITENGMADAADRYRPHYLVSHLKAVYNAMKEGADVRGYLHWSLTDNYEWAQGFRMRFGLVYVDFETKKRYLRPSALVFREIATQKEIPEELAHLADLKFVTRK
notes: homotetramer
For the protein B2, under “variant AA10”, the Km is 19.3 ± 2.5 µM and the kcat stood at 1.16 ± 0.10 s⁻¹.

B3: CelB (Pyrococcus furiosus; K436N/L412W/Y416H) (protein)
chain: MKFPKNFMFGYSWSGFQFEMGLPGSEVESDWWVWVHDKENIASGLVSGDLPENGPAYWHLYKQDHDIAEKLGMDCIRGGIEWARIFPKPTFDVKVDVEKDEEGNIISVDVPESTIKELEKIANMEALEHYRKIYSDWKERGKTFILNLYHWPLPLWIHDPIAVRKLGPDRAPAGWLDEKTVVEFVKFAAFVAYHLDDLVDMWSTMNEPNVVYNQGYINLRSGFPPGYLSFEAAEKAKFNLIQAHIGAYDAIKEYSEKSVGVIYAFAWHDPLAEEYKDEVEEIRKKDYEFVTILHSKGKLDWIGVNYYSRLVYGAKDGHLVPLPGYGFMSERGGFAKSGRPASDFGWEMYPEGLENLLKYLNNAYELPMIITENGMADAADRYRPHYLVSHLKAVYNAMKEGADVRGYLHWSWTDNHEWAQGFRMRFGLVYVDFETNKRYLRPSALVFREIATQKEIPEELAHLADLKFVTRK
notes: homotetramer
With B3, under “variant W10”, the Michaelis-Menten constant (Km) is 17.6 ± 3.6 µM and the catalytic constant (kcat) was found to be 1.15 ± 0.18 s⁻¹.

The term Km denotes the concentration of substrate that gives half-maximal velocity. As usually defined, the kcat is the maximal rate divided by the concentration of active sites.
